Where “and” joins values, the source holds several entries; their conditions need not be identical. Equal values may be shown once.
Assays:
[1] = target: SARS-CoV-2-3Q-FL spike (without 2P) (SARS-CoV-2) (UniProt P0DTC2); test: cryo-EM structure
[2] = target: SARS-CoV-2-3Q-2P full-length spike (SARS-CoV-2) (UniProt P0DTC2); test: cryo-EM structure
[3] = target: SARS-CoV-2-3Q-2P full-length spike (SARS-CoV-2) (UniProt P0DTC2); test: cryo-EM structure; remark: listed apart in the source
[4] = target: SARS-CoV-2-3Q-2P full-length spike (SARS-CoV-2) (UniProt P0DTC2); test: negative stain electron microscopy

For “SARS-CoV-2-3Q-FL spike (without 2P) (from UniProt P0DTC2 14-1273) (natural protein)”, which stoichiometry N [1] is on record?
The stoichiometry N was 3.

“SARS-CoV-2-3Q-2P full-length spike (from UniProt P0DTC2 14-1273) (natural protein)” was tested. Which stoichiometry N [2] did it give?
Its stoichiometry N is 3 and 6.

What about the stoichiometry N [3] of the same substance?
The stoichiometry N was 9.

And the stoichiometry N [4]?
Its stoichiometry N is 3.

Reference: doi:10.1101/2020.08.06.234674
